# Laboratory results as given in paper PMC11908486.
# Molecular target: bACE2_(Ra5538)-Fc (Rhinolophus affinis)
# Experiment: BLI
substance,measurement,value
SARS-CoV-2-RBD-monomer (from UniProt P0DTC2) (domain or fragment),Kd,705 nM
